# Experimental data published in patent US7238711.
# “And” between values parts separate entries of the source, which are not always exact repeats. Equal values may be shown once. No end group written: not given here.
# T1: CCR3 (human), P51677
# T1 chain: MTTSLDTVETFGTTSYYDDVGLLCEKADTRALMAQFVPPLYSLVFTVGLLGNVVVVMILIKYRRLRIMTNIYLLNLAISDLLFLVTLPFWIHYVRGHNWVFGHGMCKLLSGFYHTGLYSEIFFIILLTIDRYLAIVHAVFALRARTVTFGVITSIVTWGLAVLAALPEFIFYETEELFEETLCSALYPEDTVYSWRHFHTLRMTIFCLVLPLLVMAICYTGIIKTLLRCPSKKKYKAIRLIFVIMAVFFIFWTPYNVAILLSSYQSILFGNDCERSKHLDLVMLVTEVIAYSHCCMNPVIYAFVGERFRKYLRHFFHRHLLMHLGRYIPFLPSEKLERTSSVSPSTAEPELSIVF
# T2: CXCR4 (human), P61073
# T2 chain: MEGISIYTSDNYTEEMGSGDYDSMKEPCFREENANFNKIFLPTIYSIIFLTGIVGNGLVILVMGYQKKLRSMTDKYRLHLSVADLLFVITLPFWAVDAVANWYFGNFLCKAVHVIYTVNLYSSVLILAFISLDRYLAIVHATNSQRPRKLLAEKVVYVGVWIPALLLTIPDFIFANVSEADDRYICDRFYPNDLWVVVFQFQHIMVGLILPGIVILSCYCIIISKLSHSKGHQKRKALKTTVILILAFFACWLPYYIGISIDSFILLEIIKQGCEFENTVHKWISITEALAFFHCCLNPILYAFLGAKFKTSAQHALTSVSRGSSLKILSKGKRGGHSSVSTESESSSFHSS
# T3: CCR1 (human), P32246
# T3 chain: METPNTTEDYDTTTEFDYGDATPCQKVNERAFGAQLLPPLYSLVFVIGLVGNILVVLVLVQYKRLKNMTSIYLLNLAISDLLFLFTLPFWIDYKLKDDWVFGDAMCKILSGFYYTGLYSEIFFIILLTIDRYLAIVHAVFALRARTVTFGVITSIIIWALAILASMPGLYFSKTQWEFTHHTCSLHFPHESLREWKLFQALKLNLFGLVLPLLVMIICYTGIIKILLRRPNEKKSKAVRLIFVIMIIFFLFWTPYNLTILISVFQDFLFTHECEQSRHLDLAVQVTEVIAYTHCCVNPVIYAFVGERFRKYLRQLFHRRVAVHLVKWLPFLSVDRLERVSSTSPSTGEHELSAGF
# T4: CCR4 (human), P51679
# T4 chain: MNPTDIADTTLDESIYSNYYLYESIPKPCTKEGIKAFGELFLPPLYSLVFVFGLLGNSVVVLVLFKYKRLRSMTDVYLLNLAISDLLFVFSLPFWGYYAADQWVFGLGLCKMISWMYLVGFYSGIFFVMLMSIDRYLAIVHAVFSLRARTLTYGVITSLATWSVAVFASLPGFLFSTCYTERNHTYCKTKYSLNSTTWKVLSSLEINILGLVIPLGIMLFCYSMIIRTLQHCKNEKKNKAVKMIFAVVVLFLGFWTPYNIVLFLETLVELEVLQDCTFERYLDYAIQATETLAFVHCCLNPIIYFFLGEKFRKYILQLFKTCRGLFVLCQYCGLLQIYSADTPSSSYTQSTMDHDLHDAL
# T5: CXCR2 (human), P25025
# T5 chain: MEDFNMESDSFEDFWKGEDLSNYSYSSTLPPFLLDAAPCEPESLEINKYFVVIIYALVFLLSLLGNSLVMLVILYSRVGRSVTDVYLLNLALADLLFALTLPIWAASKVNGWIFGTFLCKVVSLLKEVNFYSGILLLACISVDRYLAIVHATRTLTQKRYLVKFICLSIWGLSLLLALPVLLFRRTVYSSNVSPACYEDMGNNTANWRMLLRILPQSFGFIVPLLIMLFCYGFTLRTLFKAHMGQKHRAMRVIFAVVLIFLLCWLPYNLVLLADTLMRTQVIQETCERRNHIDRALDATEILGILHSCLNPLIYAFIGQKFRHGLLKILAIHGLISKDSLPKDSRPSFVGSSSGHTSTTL
# T6: CXCR1 (human), P25024
# T6 chain: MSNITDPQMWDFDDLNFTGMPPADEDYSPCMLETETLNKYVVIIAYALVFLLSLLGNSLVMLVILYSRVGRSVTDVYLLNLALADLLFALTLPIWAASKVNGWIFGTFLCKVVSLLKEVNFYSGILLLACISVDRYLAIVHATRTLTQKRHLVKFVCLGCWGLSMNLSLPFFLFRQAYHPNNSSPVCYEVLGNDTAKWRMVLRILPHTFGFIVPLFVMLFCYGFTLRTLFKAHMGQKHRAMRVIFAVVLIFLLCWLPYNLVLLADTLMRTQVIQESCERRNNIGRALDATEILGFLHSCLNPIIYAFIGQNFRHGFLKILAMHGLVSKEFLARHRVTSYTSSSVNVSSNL
# T7: Duffy Antigen Receptor for Chemokines (DARC) (human), Q16570
# T7 chain: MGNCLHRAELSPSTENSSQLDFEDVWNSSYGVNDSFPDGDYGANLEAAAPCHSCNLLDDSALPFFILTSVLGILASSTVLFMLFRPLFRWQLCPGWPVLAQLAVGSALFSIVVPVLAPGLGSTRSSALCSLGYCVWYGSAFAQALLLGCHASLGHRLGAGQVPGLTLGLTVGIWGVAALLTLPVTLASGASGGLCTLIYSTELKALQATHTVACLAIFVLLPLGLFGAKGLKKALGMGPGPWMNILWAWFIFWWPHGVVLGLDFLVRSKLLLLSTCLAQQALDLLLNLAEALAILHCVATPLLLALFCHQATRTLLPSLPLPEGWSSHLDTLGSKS
# B1: N-terminal biotin conjugate of the sequence n'-…-c' (peptide)
# peptide: CLDPKQKWIQC
# modifications: not fully specified (N-terminus); cysteine pairing not given here
# B2: Peptide 1[MCP-1] (peptide)
# peptide: AQPDAINAPVTCC
# modifications: not fully specified; cysteine pairing not given here
# B3: Pep2(1-14)[MIP1α] (peptide)
# peptide: DYFETSSQCSKPGV
# B4: CRD-Cys13Leu4Ile11 peptide 3(3-12)[MCP-1] (peptide)
# peptide: CQIWKQKPDLC
# modifications: not fully specified (some residues, bridges); cysteine pairing not given here
# B5: Pep2(1-16)[IL8] (peptide)
# peptide: ELRVIESGPHCANTEI
# modifications: not fully specified
# B6: Pep2(1-15)[SDF1] (peptide)
# peptide: HLKILNTPNCALQIV
# B7: Leu4Ile11 peptide 3(1-12)[MCP-1] (peptide)
# peptide: EICLDPKQKWIQ
# modifications: not fully specified
# B8: RANTES, P13501 24-91 (ligand, UniProt P13501 24-91, looked up)
# chain: SPYSSDTTPCCFAYIARPLPRAHIKEYFYTSGKCSNPAVVFVTRKNRQVCANPEKKWVREYINSLEMS
# B9: Ser7 peptide 3(1-12)[MCP-1] (peptide)
# peptide: EICADPSQKWVQ
# modifications: not fully specified
# B10: Pep3(3-12)[MCP-1] (peptide)
# peptide: CADPKQKWVQ
# modifications: not fully specified
# B11: peptide 3(1-12)[MCP-1] (peptide)
# peptide: EICADPKQKWVQ
# modifications: not fully specified
# B12: LRD peptide 2(1-15)[MCP-1] (peptide)
# peptide: VAEKPCKSSTIRRYS
# modifications: not fully specified (some residues)
# B13: Ser7Glu8Glu9 peptide 3(1-12)[MCP-1] (peptide)
# peptide: EICADPSEEWVQ
# modifications: not fully specified
# B14: peptide 2(1-15)[MCP-1] (peptide)
# peptide: SYRRITSSKCPKEAV
# B15: CRD-Cys13pep3[3-12] (peptide)
# peptide: CQVWKQKPDAC
# modifications: not fully specified (some residues, bridges); cysteine pairing not given here
# B16: Ser10 variant of peptide 2(1-15)[MCP-1] (peptide)
# peptide: SYRRITSSKSPKEAV
# modifications: not fully specified
# Key:
# [1] = target: cell surface molecule on THP-1 cells; assay: binding of biotinylated peptide 3 to THP-1 cells, labeled streptavidin
# CCR3 (human), P51677 = target: T1, CCR3 (human), P51677; assay: biotin-labeled peptide at 10 µM on HOS transformants, 125I-streptavidin
# CCR5 (human), P51681 [2] = assay: as above
# CXCR4 (human), P61073 = target: T2, CXCR4 (human), P61073; assay: as above
# CCR1 (human), P32246 = target: T3, CCR1 (human), P32246; assay: as above
# CCR2 (human), P41597 = assay: as above
# CCR4 (human), P51679 = target: T4, CCR4 (human), P51679; assay: as above
# CXCR2 (human), P25025 = target: T5, CXCR2 (human), P25025; assay: biotin-labeled peptide at 10 µM on CHO transformants, 125I-streptavidin
# CXCR1 (human), P25024 = target: T6, CXCR1 (human), P25024; assay: as above
# MCP-1 (human), P13500 = assay: cell-based or functional assay
# [3] = target: chemokine receptors on THP-1 cells; assay: binding to THP-1 cells
# [4] = target: chemokine receptors on THP-1 cells; assay: binding to THP-1 cells (given as association constant)
# [5] = target: Duffy Antigen Receptor for Chemokines (DARC) (human) (UniProt Q16570); assay: estimated ka for red blood cells divided by average inhibitory ED50
# [6] = target: Duffy Antigen Receptor for Chemokines (DARC) (human) (UniProt Q16570); assay: DARC binding, red blood cells (given as association constant)
# [7] = target: T7, Duffy Antigen Receptor for Chemokines …; assay: ka for red blood cells divided by ka for THP-1 cells
# [8] = target: chemokine receptors on THP-1 cells; assay: receptors on THP-1 cells against DARC
# [9] = target: T7, Duffy Antigen Receptor for Chemokines …; assay: estimated ka for red blood cells divided by average inhibitory ED50
# CCR5 (human), P51681 [10] = assay: 12-point Scatchard, HOS CCR5 line; conditions: remark: other sources report otherwise
# CCR5 (human), P51681 [11] = assay: 125I-RANTES Scatchard, parental HOS line (the filing suggests background CCR5); conditions: remark: other sources report otherwise
# CCR5 (human), P51681 [12] = assay: 12-point Scatchard, 0.03 nM 125I-RANTES with cold RANTES, 4° C., 2 hours; conditions: remark: other sources report otherwise
# CCR5 (human), P51681 [13] = assay: 125I-RANTES Scatchard, HOS CCR5 line; conditions: remark: other sources report otherwise
# CCR5 (human), P51681 [14] = assay: 12-point Scatchard, parental HOS line (the filing suggests background CCR5); conditions: remark: other sources report otherwise
# CCR5 (human), P51681 [15] = assay: cell-based or functional assay
# CXCR4 (human) = CXCR4 (human) (UniProt P61073); assay: not stated (printed as affinity constant)
# CCR5 (human) = CCR5 (human) (UniProt P51681); assay: not stated (printed as affinity constant)
# [16] = target: Duffy Antigen Receptor for Chemokines (DARC) (human) (UniProt Q16570); assay: DARC binding, Table 18
# [17] = target: Duffy Antigen Receptor for Chemokines (DARC) (human) (UniProt Q16570); assay: Duffy binding, against the LFL peptide
# [18] = target: Duffy Antigen Receptor for Chemokines (DARC) (human) (UniProt Q16570); assay: Duffy binding
# [19] = target: chemokine receptors on the surface of Jurkat cells; assay: binding to Jurkat cells
# [20] = target: T7, Duffy Antigen Receptor for Chemokines …; assay: DARC binding
# Chain of CCR5 (human), P51681 (P51681 whole entry): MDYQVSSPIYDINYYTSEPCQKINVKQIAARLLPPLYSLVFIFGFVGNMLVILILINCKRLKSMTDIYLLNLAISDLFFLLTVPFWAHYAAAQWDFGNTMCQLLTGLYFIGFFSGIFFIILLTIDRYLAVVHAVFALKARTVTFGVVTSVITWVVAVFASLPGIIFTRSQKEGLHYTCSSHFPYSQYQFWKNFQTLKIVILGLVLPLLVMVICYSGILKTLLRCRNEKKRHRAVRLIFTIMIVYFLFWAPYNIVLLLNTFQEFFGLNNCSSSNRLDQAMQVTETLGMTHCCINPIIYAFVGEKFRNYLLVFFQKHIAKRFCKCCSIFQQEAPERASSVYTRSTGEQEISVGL
# Chain of CCR2 (human), P41597 (P41597 whole entry): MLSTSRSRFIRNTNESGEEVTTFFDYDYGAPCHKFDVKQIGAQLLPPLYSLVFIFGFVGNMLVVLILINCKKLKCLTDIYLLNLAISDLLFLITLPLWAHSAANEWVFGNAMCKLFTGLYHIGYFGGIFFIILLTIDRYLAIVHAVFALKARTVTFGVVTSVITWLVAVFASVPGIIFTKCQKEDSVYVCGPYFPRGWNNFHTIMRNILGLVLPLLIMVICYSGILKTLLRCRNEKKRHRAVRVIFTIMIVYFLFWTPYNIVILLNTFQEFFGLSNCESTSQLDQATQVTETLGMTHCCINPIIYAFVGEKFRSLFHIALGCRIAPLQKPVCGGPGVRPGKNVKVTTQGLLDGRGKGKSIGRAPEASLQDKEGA
# Chain of CCR5 (human) (P51681 whole entry): as the sequence (P51681 whole entry) above
# Chain of MCP-1 (human), P13500 (P13500 24-99 limits assumed): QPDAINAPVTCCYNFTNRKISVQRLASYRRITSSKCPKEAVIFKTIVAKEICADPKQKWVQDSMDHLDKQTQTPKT
binder,measurement,setting,value
B1,binding sites per cell (receptors/cell),[1],1000
same,Kd,"CCR3 (human), P51677",> 10 µM
same,Kd,"CCR5 (human), P51681 [2]",> 10 µM
same,Kd,"CXCR4 (human), P61073",> 10 µM
same,Kd,"CCR1 (human), P32246",> 10 µM
same,Kd,"CCR2 (human), P41597",> 10 µM
same,Kd,"CCR4 (human), P51679",> 10 µM
same,Kd,"CXCR2 (human), P25025",> 10 µM
same,Kd,"CXCR1 (human), P25024",> 10 µM
B2,"inhibition of MCP-1 induced THP-1 migration, peptide with the chemokine in the lower compartment","MCP-1 (human), P13500",48%
B3,binding sites per cell (sites per cell),[3],150000
same,IC50,chemokine receptors,> 100 µM
B4,Kd,[4],0.1 to 0.5 µM
same,binding sites per cell (sites per cell),[3],150000
same,Duffy selectivity,[5],> 100
same,Kd,[6],90 µM
B5,Duffy selectivity,[7],< 1
B6,IC50,chemokine receptors,35 µM
B7,fold selectivity over DARC,[8],> 20 fold
same,Duffy selectivity,[9],37.8
B8,binding sites per cell (sites per cell),"CCR5 (human), P51681 [10]",200000
same,binding sites per cell (sites per cell),"CCR5 (human), P51681 [11]",80000
same,Kd,"CCR5 (human), P51681 [12]",0.001 µM
same,binding sites per cell (sites per cell),"CCR5 (human), P51681 [13]",200000 and 400000
same,binding sites per cell (sites per cell),"CCR5 (human), P51681 [14]",100000
B9,Duffy selectivity,[9],2
B10,Duffy selectivity,[9],1.21
B11,"decrease in HIV infection of THP-1 cells, immunofluorescence staining","CCR5 (human), P51681 [15]",83%
same,Duffy selectivity,[9]; remark: other sources report otherwise,1
B12,Kd,CXCR4 (human),< 0.1 µM
same,Kd,CCR5 (human),< 0.1 µM
same,DARC binding,[16],18 µM
same,fold decrease in Duffy binding against LFL,[17],100 fold
same,IC50,chemokine receptors,3 µM
same,Kd,[18],25 µM
B13,Duffy selectivity,[9],0.59
B14,binding sites per cell,[3],130000 sites/cell
same,binding sites per cell,[19],55000 sites/cell
same,IC50,chemokine receptors,0.4 µM
B15,Duffy selectivity,[5],8.82
B16,DARC binding,[20],20 to 100 µM
